In test [1] the target is T1, CD70 expressed on the surface of Daudi lymphoma cells (Homo sapiens, UniProt P32970).
T1 construct: endogenous in cells; host or cells: Daudi (ATCC CCL-213), HuT 78 (TIB-161), Raji (CCL-86), Granta 519 (DSMZ 342)
T1 sequence (P32970 1-193): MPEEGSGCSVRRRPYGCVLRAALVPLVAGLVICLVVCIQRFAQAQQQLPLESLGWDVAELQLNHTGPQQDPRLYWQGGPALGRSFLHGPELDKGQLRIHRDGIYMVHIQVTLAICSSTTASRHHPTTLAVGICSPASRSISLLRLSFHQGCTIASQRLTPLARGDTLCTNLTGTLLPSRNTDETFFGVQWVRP
Description: Flow cytometry binding to Daudi cells. The following applies: antibody 1 μg/ml. As for the experimental part: Anti-CD70 antibodies were tested for binding to lymphoma cells expressing CD70 on their cell surface by flow cytometry.
The lymphoma cell lines Daudi (ATCC Accession No. CCL-213), HuT 78 (ATCC Accession No. TIB-161) and Raji (ATCC Accession No. CCL-86) were each tested for antibody binding. Binding of the HuMAb 2H5 anti-CD70 human monoclonal antibody was assessed by incubating 1×10^5 cells with 2H5 at a concentration of 1 μg/ml. The cells were washed and binding was detected with a FITC-labeled anti-human IgG Ab. […] Flow cytometric analyses were performed using a FACSCalibur flow cytometry (Becton Dickinson, San Jose, Calif.). The anti-CD70 monoclonal antibody 2H5 bound to the lymphoma cell lines Daudi, HuT 78 and Raji, as measured by the mean fluorescent intensity (MFI) of staining.
The Daudi lymphoma cell line and 786-O renal carcinoma cell were further tested for antibody binding. Binding of the HuMAb 69A7 anti-CD70 human monoclonal antibody was assessed by incubating 2×10^5 cells with 69A7 at a concentration of 1 μg/ml. The cells were washed and binding was detected with a FITC-labeled anti-human IgG Ab. […] The anti-CD70 monoclonal antibody 69A7 bound to the Daudi lymphoma cell line and 786-O renal carcinoma cell line, as measured by the mean fluorescent intensity (MFI) of staining.

For test [2], the system named is 786-O human renal cancer cell line. Briefly: Internalization by immunofluorescence staining. It counts as cell-based. As to the method: The 786-O human renal cancer cell line was used to test the internalization of HuMab anti-CD70 antibodies 69A7 and 2H5 upon binding to the cells using immuno-fluorescence staining. 786-O cells (1×10^4 cells per 100 μl per well in a 96-well plate) were harvested from a tissue culture flask by treatment with 0.25% Trypsin/EDTA, then incubated with each of the HuMab anti-CD70 antibodies at 5 μg/ml in FACS buffer (PBS+5% FBS, media) for 30 minutes on ice. A human IgG1 isotype control was used as a negative control. Following 2 washes with media, the cells were re-suspended in the media (100 μl per well) and then incubated with goat anti-human secondary antibody conjugated with PE (Jackson ImmunoResearch Lab) at 1:100 dilution on ice for 30 minutes. The cells were either immediately imaged for morphology and immunofluorescence intensity under a fluorescent microscope (Nikon) at 0 min or incubated at 37° C. for various times. […] Similar results were also obtained with FITC-direct conjugated HuMab anti-CD70 antibodies in the assays. […] At the 120 min timepoint, membrane fluorescence was not apparent, but instead appeared to be present in intracellular compartments.

Test [3] concerns the target T2, human CD70 expressed on the cell surface (human, UniProt P32970 1-193).
T2 construct: also called full length CD70 on transfected CHO cells
T2 sequence: T1 sequence (P32970 1-193)
Briefly: flow cytometry on 786-O cells, MFI. As for the experimental part:
Binding of the anti-CD70 human monoclonal antibodies was assessed by incubating 5×10⁵ cells with antibody at a starting concentration of 10 μg/ml and serially diluting the antibody at a 1:3 dilution. The cells were washed and binding was detected with a PE-labeled anti-human IgG Ab. Flow cytometric analyses were performed using a FACSCalibur flow cytometry (Becton Dickinson, San Jose, Calif.).

In a further test the test system is SU-DHL-6 cells. Description: ADCC fluorescence cytotoxicity assay, SU-DHL-6. It counts as cell-based, human. The note with it: target to effector ratio 1:50. As to the method: (§1) In this example, a defucosylated and non-defucosylated anti-CD70 monoclonal antibody was tested for the ability to kill CD70+cells in the presence of effector cells via antibody dependent cellular cytotoxicity (ADCC) in a fluorescence cytotoxicity assay
(§2) Human Anti-CD70 monoclonal antibody 2H5 was defucosylated as described above. Human effector cells were prepared from whole blood as follows. Human peripheral blood mononuclear cells were purified from heparinized whole blood by standard Ficoll-paque separation. The cells were resuspended in RPMI1640 media containing 10% FBS (culture media) and 200 U/ml of human IL-2 and incubated overnight at 37° C. The following day, the cells were collected and washed once in culture media and resuspended at 2×10^7 cells/ml. […]
(§3) The CD70+ cell lines ARH-77 (human B lymphoblast leukemia; ATCC Accession No. CRL-1621), MEC-1 (human chronic B cell leukemia; DSMZ Accession No. ACC 497), SU-DHL-6 (human B cell lymphoma, DSMZ Accession No. Acc572), IM-9 (human B lymphoblast; ATCC Accession No. CCL-159) and HuT 78 (human cutaneous lymphocyte lymphoma; ATCC Accession No. TIB-161), were tested for antibody specific ADCC to the defucosylated and non-defucosylated human anti-CD70 monoclonal antibody 2H5 using the Delfia fluorescence emission analysis as follows. […]

In the next test the test system is IM-9 cells. Description: ADCC fluorescence cytotoxicity assay, IM-9. The following applies: target to effector ratio 1:50. Type of test: cell-based, human. As for the experimental part:
as §1, §2, §3

Changes are numbered by the printed parent chain.

B1: anti-CD70 human monoclonal antibody 69A7 (antibody, V domains shown)
VH: QVQLQESGPGLVKPSETLSLTCTVSGGSVSSDYYYWSWIRQPPGKGLEWLGYIYYSGSTNYNPSLKSRVTISVDTSKNQFSLKLRSVTTADTAVYYCARGDGDYGGNCFDYWGQGTLVTVSS
VL: EIVLTQSPATLSLSPGERATLSCRASQSVSSYLAWYQQKPGQAPRLLIFDASNRATGIPARFSGSGSGTDFTLTISSLEPEDFAVYYCQQRSNWPLTFGGGTKVEIK
notes: Human IgG from hybridoma; also called HuMAb 69A7; FITC-conjugated 69A7
In the case of B1, in test [1], the “binding to Daudi cells (MFI)” value is listed as “bound”. Moreover, the membrane fluorescence intensity result in test [2] (30 min incubation at 37° C.) was “significantly decreased”. Further, in test [2] (120 min timepoint), the membrane fluorescence entry is listed as “not apparent”. For the same molecule, the internalization upon binding entry in test [2] (antibody 5 μg/ml, 37° C.) is “specifically internalized”. The molecule also had an EC50 in test [3] of 6.93 nM.

B2: 2H5 NF: 2H5 HuMAb lacking fucosyl residues, expressed in CHO cell line Ms704-PF (antibody, V domains shown)
VH: QVQLVESGGGVVQPGRSLRLSCAASGFTFSSYIMHWVRQAPGKGLEWVAVISYDGRNKYYADSVKGRFTISRDNSKNTLYLQMNSLRAEDTAVYYCARDTDGYDFDYWGQGTLVTVSS
VL: B1 VL with F49Y, S92T
Consider B2, for which, in the test on SU-DHL-6 cells, the “ADCC, % specific lysis of SU-DHL-6” value is reported as “increased percentage of specific lysis”. Also, the “ADCC, % specific lysis of IM-9” value in the test with IM-9 cells was “increased percentage of specific lysis”.

For the origin of these results see patent publication US20100150950A1, “HUMAN ANTIBODIES THAT BIND CD70 AND USES THEREOF” (Medarex, Inc., priority 2006, published 2010).
